In experiment [1] the target is microtubules (U2OS cells) (human (endogenous in U2OS)) (UniProt P07437). The experiment is described as follows: co-sedimentation.
Experiment [2] addresses KRIT1 FERM domain, residues 417-736 (wild type) (human, UniProt O00522 417-736). Description: ITC. On the technique in general: ITC needs no label: the signal is the heat of the interaction.
The target in experiment [3] is KRIT1(R452E) FERM domain, residues 417-736 (human, UniProt O00522 417-736, R452E). Description: ITC.
Chain of KRIT1(R452E) FERM domain, residues 417-736 (O00522 417-736 R452E): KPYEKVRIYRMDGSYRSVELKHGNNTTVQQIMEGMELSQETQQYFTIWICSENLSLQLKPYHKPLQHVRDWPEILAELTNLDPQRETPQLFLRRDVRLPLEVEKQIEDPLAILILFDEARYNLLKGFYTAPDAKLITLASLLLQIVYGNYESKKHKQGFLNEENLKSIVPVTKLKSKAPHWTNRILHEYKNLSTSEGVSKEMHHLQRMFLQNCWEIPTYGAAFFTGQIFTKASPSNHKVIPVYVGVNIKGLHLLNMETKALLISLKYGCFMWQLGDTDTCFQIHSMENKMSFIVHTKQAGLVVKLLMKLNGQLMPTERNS

Chain of microtubules (U2OS cells) (human (endogenous in U2OS)) (P07437 whole entry, looked up, the tested form may be a part): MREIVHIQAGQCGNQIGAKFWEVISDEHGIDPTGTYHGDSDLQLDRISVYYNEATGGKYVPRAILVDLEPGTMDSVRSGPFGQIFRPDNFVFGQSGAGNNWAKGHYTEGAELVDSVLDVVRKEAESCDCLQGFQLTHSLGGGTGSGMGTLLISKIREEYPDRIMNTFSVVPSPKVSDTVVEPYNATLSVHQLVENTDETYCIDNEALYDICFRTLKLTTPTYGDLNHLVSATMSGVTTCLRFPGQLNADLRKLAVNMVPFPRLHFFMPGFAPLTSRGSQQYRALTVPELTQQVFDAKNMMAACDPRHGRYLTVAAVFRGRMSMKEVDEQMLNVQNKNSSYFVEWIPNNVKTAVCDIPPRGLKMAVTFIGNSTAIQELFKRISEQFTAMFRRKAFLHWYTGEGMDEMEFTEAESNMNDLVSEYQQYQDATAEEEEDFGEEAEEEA
Chain of KRIT1 FERM domain, residues 417-736 (wild type) (O00522 417-736): as the sequence (O00522 417-736 R452E) above, with E36R counted along it

“GFP-fused KRIT1(R452E) (U2OS) (from UniProt O00522 1-736) (natural protein)” registered a fold increase in association with microtubules over wild-type KRIT1 in experiment [1] of 8 fold.

B1: Human Rap1 isoform Rap1B (residues 1-167) bound to GMP-PNP (domain or fragment, UniProt P61224 1-167, looked up)
chain: MREYKLVVLGSGGVGKSALTVQFVQGIFVEKYDPTIEDSYRKQVEVDAQQCMLEILDTAGTEQFTAMRDLYMKNGQGFALVYSITAQSTFNDLQDLREQILRVKDTDDVPMILVGNKCDLEDERVVGKEQGQNLARQWNNCAFLESSAKSKINVNEIFYDLVRQINR
One may read the Kd as the concentration at which binding is half-saturated. Consider B1, for which the Kd turned out to be 1.8 ± 0.25 µM in experiment [2] and 67 ± 18.7 µM in experiment [3].

The record behind these values is paper PMC3135476 (Molecular Biology of the Cell, 2011).
